The values that follow come from US20240261333A1 (published 2024).

Common to all, as to test: co-IP with anti-FLAG, C-FLAG B3GNT2, mass spectrometry
The target in one test is T1, LGALS7B (human, UniProt P47929 1-136).
T1 construct: also called NP_001035972.1
As for the experimental part:
(§1) Cells were plated in 10-cm cell culture dishes and grown to 60-80% confluency. For each condition, two biological replicates were harvested for co-IP. Cells were washed with PBS and 4 mL of lysis buffer (20 mM HEPES, 1% Triton X-100, 150 mM NaCl, 1 mM EDTA, and 10% glycerol) containing protease inhibitor cocktail was added. Cells were scraped and lysate was incubated at 4° C. under rotary agitation for 1 h. Lysate was centrifuged at 14,000×g for 10 min at 4° C. Supernatant was transferred to a new tube and an aliquot was taken as the input. […] For Western blots, 10 μg/mL Chicken Anti-FLAG (Aves labs ET-DY100) and IgY control (R&D Systems AB-101-C) antibodies were biotinylated (Thermo Fisher Scientific 90407) and added to the respective conditions. Lysates with antibodies were incubated at 4° C. under rotary agitation overnight. For each mL of lysate, 50 μL of Pierce Protein A/G Magnetic Beads (Mass spectrometry; Thermo Fisher Scientific 88803) or Pierce Streptavidin Magnetic Beads (Western blot; Thermo Fisher Scientific 88817) was washed twice with lysis buffer. Lysates with antibodies were added to the beads and incubated at 4° C. under rotary agitation for 4 h. Beads were washed with lysis buffer 3 times and resuspended in lysis buffer for storage.
(§2) Magnetic beads were resuspended in 100 mM Tris pH 7.8, reduced, alkylated and digested with trypsin at 37° ° C. overnight. This solution was subjected to solid phase extraction to concentrate the peptides and remove unwanted reagents followed by injection onto a Shimadzu HPLC with fraction collector. Eight fractions were collected and after concentration were injected on a Waters NanoAcquity HPLC equipped with a self-packed Aeris 3 μm C18 analytical column 0.075 mm by 20 cm, (Phenomenex). Peptides were eluted using standard reverse-phase gradients. The effluent from the column was analyzed using a Thermo Orbitrap Elite mass spectrometer (nanospray configuration) operated in a data dependent manner for 54 minutes. The resulting fragmentation spectra were correlated against the known database using Proteome Discover 1.4 (Thermo Fisher Scientific).

The target of a further test is T2, DDX1 (human, UniProt Q92499 1-740).
T2 construct: also called NP_004930.1
T2 sequence (looked up): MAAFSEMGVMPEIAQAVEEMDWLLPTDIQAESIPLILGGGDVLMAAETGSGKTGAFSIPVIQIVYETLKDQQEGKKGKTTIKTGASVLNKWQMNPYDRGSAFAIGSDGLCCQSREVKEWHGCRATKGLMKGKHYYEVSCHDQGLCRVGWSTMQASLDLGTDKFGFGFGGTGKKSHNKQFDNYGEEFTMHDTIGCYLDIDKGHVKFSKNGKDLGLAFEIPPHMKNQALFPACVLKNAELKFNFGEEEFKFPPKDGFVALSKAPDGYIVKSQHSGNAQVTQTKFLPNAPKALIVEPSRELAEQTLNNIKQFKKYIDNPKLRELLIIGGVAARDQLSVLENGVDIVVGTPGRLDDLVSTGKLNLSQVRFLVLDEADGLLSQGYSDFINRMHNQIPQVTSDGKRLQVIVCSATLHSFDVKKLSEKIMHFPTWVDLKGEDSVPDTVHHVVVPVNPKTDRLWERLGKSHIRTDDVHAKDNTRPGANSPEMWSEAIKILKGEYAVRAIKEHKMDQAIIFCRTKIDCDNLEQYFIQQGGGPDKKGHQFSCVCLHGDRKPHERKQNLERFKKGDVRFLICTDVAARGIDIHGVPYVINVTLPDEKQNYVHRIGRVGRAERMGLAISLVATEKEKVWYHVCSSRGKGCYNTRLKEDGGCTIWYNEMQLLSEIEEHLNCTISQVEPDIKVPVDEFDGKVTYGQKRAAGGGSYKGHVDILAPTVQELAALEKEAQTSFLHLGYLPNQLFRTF
As for the experimental part: as §1, §2

A further test concerns the target RPL23 (human, UniProt P62829 1-140). As for the experimental part: as §1, §2
For a further test, the target named is RPS14 (human, UniProt P62263 2-151). As for the experimental part: as §1, §2
The target of another test is T3, CLTC (human, UniProt Q00610 2-1675, limits assumed).
T3 construct: also called NP_001275582.1 (+2)
T3 sequence (Q00610 2-1675 limits assumed): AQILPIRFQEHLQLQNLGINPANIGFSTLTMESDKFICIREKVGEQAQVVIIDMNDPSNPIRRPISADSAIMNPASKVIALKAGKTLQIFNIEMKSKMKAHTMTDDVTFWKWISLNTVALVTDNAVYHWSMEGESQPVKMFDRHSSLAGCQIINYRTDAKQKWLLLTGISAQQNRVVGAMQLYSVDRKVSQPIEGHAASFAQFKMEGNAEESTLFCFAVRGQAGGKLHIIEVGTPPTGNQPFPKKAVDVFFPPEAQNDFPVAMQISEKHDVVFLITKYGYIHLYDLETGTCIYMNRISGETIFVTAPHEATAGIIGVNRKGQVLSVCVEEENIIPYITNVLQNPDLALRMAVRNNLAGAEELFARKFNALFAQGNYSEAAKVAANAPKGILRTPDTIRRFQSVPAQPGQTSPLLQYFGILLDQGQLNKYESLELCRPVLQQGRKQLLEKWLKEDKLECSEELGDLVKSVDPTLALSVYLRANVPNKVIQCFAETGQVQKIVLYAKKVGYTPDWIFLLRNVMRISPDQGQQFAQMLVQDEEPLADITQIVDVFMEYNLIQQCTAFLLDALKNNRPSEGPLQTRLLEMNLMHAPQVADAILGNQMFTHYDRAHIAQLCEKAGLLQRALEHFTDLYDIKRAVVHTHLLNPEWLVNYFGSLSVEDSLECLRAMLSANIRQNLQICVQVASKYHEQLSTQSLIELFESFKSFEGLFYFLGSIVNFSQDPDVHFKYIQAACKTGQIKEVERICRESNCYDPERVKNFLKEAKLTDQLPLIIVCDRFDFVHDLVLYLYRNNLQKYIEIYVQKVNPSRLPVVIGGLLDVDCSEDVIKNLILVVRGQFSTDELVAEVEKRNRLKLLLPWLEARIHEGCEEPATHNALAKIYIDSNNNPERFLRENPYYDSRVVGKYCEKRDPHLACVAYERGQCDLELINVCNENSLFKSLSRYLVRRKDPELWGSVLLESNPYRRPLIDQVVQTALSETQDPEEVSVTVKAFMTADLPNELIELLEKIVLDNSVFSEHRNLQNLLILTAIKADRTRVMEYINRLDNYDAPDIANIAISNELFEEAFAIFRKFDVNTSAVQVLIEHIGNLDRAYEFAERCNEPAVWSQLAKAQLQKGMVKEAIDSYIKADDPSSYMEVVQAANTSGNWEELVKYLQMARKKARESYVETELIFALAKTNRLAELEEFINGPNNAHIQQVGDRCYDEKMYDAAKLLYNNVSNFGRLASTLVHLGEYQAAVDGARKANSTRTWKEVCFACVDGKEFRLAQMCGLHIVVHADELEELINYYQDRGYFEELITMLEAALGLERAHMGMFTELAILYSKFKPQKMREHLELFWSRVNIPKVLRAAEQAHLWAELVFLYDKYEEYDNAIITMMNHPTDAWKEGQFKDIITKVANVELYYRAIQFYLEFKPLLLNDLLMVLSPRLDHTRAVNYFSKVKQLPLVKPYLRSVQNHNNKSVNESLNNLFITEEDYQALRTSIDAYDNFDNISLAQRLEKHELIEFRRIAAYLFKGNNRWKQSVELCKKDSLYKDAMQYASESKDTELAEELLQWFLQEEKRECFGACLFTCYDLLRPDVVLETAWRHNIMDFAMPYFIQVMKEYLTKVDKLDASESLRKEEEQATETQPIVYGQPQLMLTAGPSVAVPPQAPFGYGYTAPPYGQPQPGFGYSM
As for the experimental part: as §1, §2

The target of the next test is T4, HBB (human, UniProt P68871 2-147).
T4 construct: also called NP_000509.1
T4 sequence (P68871 2-147 limits assumed): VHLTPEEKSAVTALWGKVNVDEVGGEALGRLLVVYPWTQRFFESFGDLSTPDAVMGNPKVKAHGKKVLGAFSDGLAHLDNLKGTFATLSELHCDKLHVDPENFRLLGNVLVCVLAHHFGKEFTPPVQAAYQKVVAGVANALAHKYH
As for the experimental part: as §1, §2

The target of another test is T5, TGM1 (human, UniProt P22735 1-817, limits assumed).
T5 construct: also called NP_000350.1
T5 sequence (looked up): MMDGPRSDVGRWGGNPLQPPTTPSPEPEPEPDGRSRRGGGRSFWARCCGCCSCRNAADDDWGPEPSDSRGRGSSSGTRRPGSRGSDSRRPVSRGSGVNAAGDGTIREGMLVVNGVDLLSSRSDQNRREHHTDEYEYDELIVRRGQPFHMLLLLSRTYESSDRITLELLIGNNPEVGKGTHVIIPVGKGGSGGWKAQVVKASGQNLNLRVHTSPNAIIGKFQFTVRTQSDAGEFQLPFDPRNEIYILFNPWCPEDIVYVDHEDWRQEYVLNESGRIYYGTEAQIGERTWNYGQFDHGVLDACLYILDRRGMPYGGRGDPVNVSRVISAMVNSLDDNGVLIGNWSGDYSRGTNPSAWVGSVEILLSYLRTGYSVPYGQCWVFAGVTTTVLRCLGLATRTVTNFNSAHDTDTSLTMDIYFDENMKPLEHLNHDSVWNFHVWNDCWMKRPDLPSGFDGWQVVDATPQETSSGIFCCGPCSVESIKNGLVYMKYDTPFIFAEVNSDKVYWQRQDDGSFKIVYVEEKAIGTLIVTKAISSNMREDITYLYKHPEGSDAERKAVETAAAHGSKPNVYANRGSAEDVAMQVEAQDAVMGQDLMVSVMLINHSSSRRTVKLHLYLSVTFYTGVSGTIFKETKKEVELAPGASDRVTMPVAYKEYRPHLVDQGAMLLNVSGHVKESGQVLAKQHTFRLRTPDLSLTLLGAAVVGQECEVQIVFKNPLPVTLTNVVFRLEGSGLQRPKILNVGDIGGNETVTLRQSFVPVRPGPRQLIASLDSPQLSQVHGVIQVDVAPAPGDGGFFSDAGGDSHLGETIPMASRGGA
As for the experimental part:
as §1, §2

T1 sequence (P47929 whole entry): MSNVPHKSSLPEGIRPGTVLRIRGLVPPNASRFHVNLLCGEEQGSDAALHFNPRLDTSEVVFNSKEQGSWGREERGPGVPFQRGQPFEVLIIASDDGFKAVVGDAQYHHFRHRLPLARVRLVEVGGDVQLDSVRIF

B1: C-terminal FLAG tagged B3GNT2 (enzyme, human, UniProt Q9NY97 1-397, looked up)
chain: MSVGRRRIKLLGILMMANVFIYFIMEVSKSSSQEKNGKGEVIIPKEKFWKISTPPEAYWNREQEKLNRQYNPILSMLTNQTGEAGRLSNISHLNYCEPDLRVTSVVTGFNNLPDRFKDFLLYLRCRNYSLLIDQPDKCAKKPFLLLAIKSLTPHFARRQAIRESWGQESNAGNQTVVRVFLLGQTPPEDNHPDLSDMLKFESEKHQDILMWNYRDTFFNLSLKEVLFLRWVSTSCPDTEFVFKGDDDVFVNTHHILNYLNSLSKTKAKDLFIGDVIHNAGPHRDKKLKYYIPEVVYSGLYPPYAGGGGFLYSGHLALRLYHITDQVHLYPIDDVYTGMCLQKLGLVPEKHKGFRTFDIEEKNKNNICSYVDLMLVHSRKPQEMIDIWSQLQSAHLKC
notes: FLAG-tagged ORF overexpressed in cells; pulled down from lysate with mouse anti-FLAG; also called C-FLAG B3GNT2; C-term flag; not shown: C-terminal FLAG tag
For B1, the “co-IP mass spectrometry count” value in the test with LGALS7B stood at 4; with DDX1 it was 4; in the test with RPL23, 6; with RPS14 it was 18.

B2: C-terminal FLAG tagged B3GNT2 (enzyme, human, UniProt Q9NY97 1-397, looked up)
chain: MSVGRRRIKLLGILMMANVFIYFIMEVSKSSSQEKNGKGEVIIPKEKFWKISTPPEAYWNREQEKLNRQYNPILSMLTNQTGEAGRLSNISHLNYCEPDLRVTSVVTGFNNLPDRFKDFLLYLRCRNYSLLIDQPDKCAKKPFLLLAIKSLTPHFARRQAIRESWGQESNAGNQTVVRVFLLGQTPPEDNHPDLSDMLKFESEKHQDILMWNYRDTFFNLSLKEVLFLRWVSTSCPDTEFVFKGDDDVFVNTHHILNYLNSLSKTKAKDLFIGDVIHNAGPHRDKKLKYYIPEVVYSGLYPPYAGGGGFLYSGHLALRLYHITDQVHLYPIDDVYTGMCLQKLGLVPEKHKGFRTFDIEEKNKNNICSYVDLMLVHSRKPQEMIDIWSQLQSAHLKC
notes: FLAG-tagged ORF overexpressed in A375 cells; pulled down from the lysate with mouse anti-FLAG; also called C-FLAG B3GNT2; C-term flag; not shown: C-terminal FLAG tag
As for B2, the “co-IP/MS count, C-term flag” value with CLTC came out at 7; with HBB it was 0; in the test with TGM1 it was 8.
